Source: patent US20170306050

Tests used:
[1] = system: Pro-MMP9
[2] = biological target: α1-antitrypsin (UniProt P01009)
Chain of α1-antitrypsin (P01009 whole entry, looked up): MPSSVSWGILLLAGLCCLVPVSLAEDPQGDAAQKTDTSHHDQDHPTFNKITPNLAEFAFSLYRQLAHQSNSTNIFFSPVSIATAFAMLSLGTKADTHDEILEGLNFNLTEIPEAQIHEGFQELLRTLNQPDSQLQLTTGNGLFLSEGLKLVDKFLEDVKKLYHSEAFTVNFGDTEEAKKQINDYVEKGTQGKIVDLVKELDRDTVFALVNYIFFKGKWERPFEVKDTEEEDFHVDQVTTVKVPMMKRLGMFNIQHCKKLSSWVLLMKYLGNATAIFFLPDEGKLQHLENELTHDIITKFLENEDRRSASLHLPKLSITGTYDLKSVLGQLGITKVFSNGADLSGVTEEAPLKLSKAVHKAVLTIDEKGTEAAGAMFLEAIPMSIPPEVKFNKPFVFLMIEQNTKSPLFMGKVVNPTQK

Chain of active MMP3 (chain, as listed by the source): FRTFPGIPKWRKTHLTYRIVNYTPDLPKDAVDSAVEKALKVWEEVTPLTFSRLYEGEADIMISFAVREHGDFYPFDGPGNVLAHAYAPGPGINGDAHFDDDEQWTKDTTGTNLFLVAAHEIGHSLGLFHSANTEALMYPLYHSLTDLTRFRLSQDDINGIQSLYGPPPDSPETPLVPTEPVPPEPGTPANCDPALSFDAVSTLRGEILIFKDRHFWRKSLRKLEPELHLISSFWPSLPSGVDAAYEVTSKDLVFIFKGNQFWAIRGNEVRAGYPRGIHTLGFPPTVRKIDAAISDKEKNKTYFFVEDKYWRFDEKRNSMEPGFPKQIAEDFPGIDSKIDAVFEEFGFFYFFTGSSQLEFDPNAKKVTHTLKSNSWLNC
Chain of active MMP9 (chain, as listed by the source): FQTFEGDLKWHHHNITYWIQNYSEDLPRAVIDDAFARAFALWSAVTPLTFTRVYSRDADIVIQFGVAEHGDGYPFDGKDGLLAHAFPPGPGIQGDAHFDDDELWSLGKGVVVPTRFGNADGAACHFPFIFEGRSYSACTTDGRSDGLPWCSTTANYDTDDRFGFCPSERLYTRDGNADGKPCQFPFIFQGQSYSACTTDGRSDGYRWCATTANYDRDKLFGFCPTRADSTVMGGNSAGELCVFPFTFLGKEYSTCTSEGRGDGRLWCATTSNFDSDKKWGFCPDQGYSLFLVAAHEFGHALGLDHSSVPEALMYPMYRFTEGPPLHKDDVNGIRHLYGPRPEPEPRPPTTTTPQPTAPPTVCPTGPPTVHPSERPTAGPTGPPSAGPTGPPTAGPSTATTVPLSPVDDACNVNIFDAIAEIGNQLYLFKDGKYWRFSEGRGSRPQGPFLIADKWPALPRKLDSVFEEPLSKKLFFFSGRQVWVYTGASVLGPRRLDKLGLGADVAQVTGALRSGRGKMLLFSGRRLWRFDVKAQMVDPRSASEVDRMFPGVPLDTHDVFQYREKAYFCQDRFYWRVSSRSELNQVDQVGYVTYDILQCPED

Substance	activation of pro-MMP9 (appearance of the active MMP9 fragment by Li-Cor Western blot and increase in gelatinolytic activity) [1]	cleavage of α1-antitrypsin by Western blot [2]
active MMP3	Both proteases activated MMP9 in a dose-dependent manner	–
active MMP9	–	In the presence of active MMP9 alone, α1-antitrypsin was cleaved from the active form to the inactive form
active Pseudomonas elastase	Both proteases activated MMP9 in a dose-dependent manner	–
